Measurements: US20200283521A1 (GRANULAR THERAPEUTICS, published 2020)

B1: MH5.3 (antibody, IgG1, V domains shown)
VH: QVQLVQSGAEVKKPGASVKVSCKASGYTFTDHYMNWVRQAPGQGLEWMGRIYPGTGNTYYAQKFQGRVTMTRDTSTSTVYMELSSLRSEDTAVYYCARGVWYYDYWGQGTLVTVSS
VL: DIQMTQSPSSLSASVGDRVTITCRASQGIRTNLAWFQQKPGKAPKSLIYAASSLQSGVPSRFSGSGSGTDFTLTISSLQPEDFATYYCQQYANYPRTFGGGTKVEIK
notes: IgG1
B2: MH5.5 (antibody, IgG1, V domains shown)
VH: QVQLVQSGAEVKKPGASVKVSCKASGYTFTDHYMNWVRQAPGQGLEWMGRIYPGTGNTYYAQKFQGRVTMTRDTSTSTVYMELSSLRSEDTAVYYCARGVWYFDTWGQGTLVTVSS
VL: DIQMTQSPSSLSASVGDRVTITCRASQGIRTNLAWFQQKPGKAPKSLIYAASSLQSGVPSRFSGSGSGTDFTLTISSLQPEDFATYYCQQYANYPRTFGGGTKVEIK
notes: IgG1
B3: MH5.17 (antibody, IgG1, V domains shown)
VH: QVQLVQSGAEVKKPGASVKVSCKASGYTFTDFYMNWVRQAPGQGLEWMGRIYPGTGNTYYAQKFQGRVTMTRDTSTSTVYMELSSLRSEDTAVYYCARGVWYFDEWGQGTLVTVSS
VL: DIQMTQSPSSLSASVGDRVTITCRASQGIRTNLAWFQQKPGKAPKSLIYAASSLQSGVPSRFSGSGSGTDFTLTISSLQPEDFATYYCQQYANYPRTFGGGTKVEIK
notes: IgG1
B4: MH5.27 (antibody, IgG1, V domains shown)
VH: QVQLVQSGAEVKKPGASVKVSCKASGYTFTNYYMNWVRQAPGQGLEWMGRIYPGTGNTYYAQKFQGRVTMTRDTSTSTVYMELSSLRSEDTAVYYCARGVWYFDTWGQGTLVTVSS
VL: DIQMTQSPSSLSASVGDRVTITCRASQGIRTNLAWFQQKPGKAPKSLIYAASSLQSGVPSRFSGSGSGTDFTLTISSLQPEDFATYYCQQYANYPRTFGGGTKVEIK
notes: IgG1
B5: MH5.18 (antibody, IgG1, V domains shown)
VH: QVQLVQSGAEVKKPGASVKVSCKASGYTFTDFYMNWVRQAPGQGLEWMGRIYPGAGNTYYAQKFQGRVTMTRDTSTSTVYMELSSLRSEDTAVYYCARGVWYYDYWGQGTLVTVSS
VL: DIQMTQSPSSLSASVGDRVTITCRASQGIRTNLAWFQQKPGKAPKSLIYAASSLQSGVPSRFSGSGSGTDFTLTISSLQPEDFATYYCQQYANYPRTFGGGTKVEIK
notes: IgG1
B6: MH5.8 (antibody, IgG1, V domains shown)
VH: QVQLVQSGAEVKKPGASVKVSCKASGYTFTDHYMNWVRQAPGQGLEWMGRIYPGAGNTYYAQKFQGRVTMTRDTSTSTVYMELSSLRSEDTAVYYCARGVWYFDSWGQGTLVTVSS
VL: DIQMTQSPSSLSASVGDRVTITCRASQGIRTNLAWFQQKPGKAPKSLIYAASSLQSGVPSRFSGSGSGTDFTLTISSLQPEDFATYYCQQYANYPRTFGGGTKVEIK
notes: IgG1
B7: MH5.9 (antibody, IgG1, V domains shown)
VH: QVQLVQSGAEVKKPGASVKVSCKASGYTFTDHYMNWVRQAPGQGLEWMGRIYPGAGNTYYAQKFQGRVTMTRDTSTSTVYMELSSLRSEDTAVYYCARGVWYFDTWGQGTLVTVSS
VL: DIQMTQSPSSLSASVGDRVTITCRASQGIRTNLAWFQQKPGKAPKSLIYAASSLQSGVPSRFSGSGSGTDFTLTISSLQPEDFATYYCQQYANYPRTFGGGTKVEIK
notes: IgG1
B8: MH5.29 (antibody, IgG1, V domains shown)
VH: QVQLVQSGAEVKKPGASVKVSCKASGYTFTNYYMNWVRQAPGQGLEWMGRIYPGAGNTYYAQKFQGRVTMTRDTSTSTVYMELSSLRSEDTAVYYCARGVWYYDYWGQGTLVTVSS
VL: DIQMTQSPSSLSASVGDRVTITCRASQGIRTNLAWFQQKPGKAPKSLIYAASSLQSGVPSRFSGSGSGTDFTLTISSLQPEDFATYYCQQYANYPRTFGGGTKVEIK
notes: IgG1
B9: MH5.21 (antibody, IgG1, V domains shown)
VH: QVQLVQSGAEVKKPGASVKVSCKASGYTFTDFYMNWVRQAPGQGLEWMGRIYPGAGNTYYAQKFQGRVTMTRDTSTSTVYMELSSLRSEDTAVYYCARGVWYFDEWGQGTLVTVSS
VL: DIQMTQSPSSLSASVGDRVTITCRASQGIRTNLAWFQQKPGKAPKSLIYAASSLQSGVPSRFSGSGSGTDFTLTISSLQPEDFATYYCQQYANYPRTFGGGTKVEIK
notes: IgG1
B10: MH5.12 (antibody, IgG1, V domains shown)
VH: QVQLVQSGAEVKKPGASVKVSCKASGYTFTDHYMNWVRQAPGQGLEWMGRIYPASGNTYYAQKFQGRVTMTRDTSTSTVYMELSSLRSEDTAVYYCARGVWYFDSWGQGTLVTVSS
VL: DIQMTQSPSSLSASVGDRVTITCRASQGIRTNLAWFQQKPGKAPKSLIYAASSLQSGVPSRFSGSGSGTDFTLTISSLQPEDFATYYCQQYANYPRTFGGGTKVEIK
notes: IgG1
B11: MH5.16 (antibody, IgG1, V domains shown)
VH: QVQLVQSGAEVKKPGASVKVSCKASGYTFTDFYMNWVRQAPGQGLEWMGRIYPGTGNTYYAQKFQGRVTMTRDTSTSTVYMELSSLRSEDTAVYYCARGVWYFDTWGQGTLVTVSS
VL: DIQMTQSPSSLSASVGDRVTITCRASQGIRTNLAWFQQKPGKAPKSLIYAASSLQSGVPSRFSGSGSGTDFTLTISSLQPEDFATYYCQQYANYPRTFGGGTKVEIK
notes: IgG1
B12: MH5.19 (antibody, IgG1, V domains shown)
VH: QVQLVQSGAEVKKPGASVKVSCKASGYTFTDFYMNWVRQAPGQGLEWMGRIYPGAGNTYYAQKFQGRVTMTRDTSTSTVYMELSSLRSEDTAVYYCARGVWYFDSWGQGTLVTVSS
VL: DIQMTQSPSSLSASVGDRVTITCRASQGIRTNLAWFQQKPGKAPKSLIYAASSLQSGVPSRFSGSGSGTDFTLTISSLQPEDFATYYCQQYANYPRTFGGGTKVEIK
notes: IgG1
B13: MH5.26 (antibody, IgG1, V domains shown)
VH: QVQLVQSGAEVKKPGASVKVSCKASGYTFTNYYMNWVRQAPGQGLEWMGRIYPGTGNTYYAQKFQGRVTMTRDTSTSTVYMELSSLRSEDTAVYYCARGVWYFDSWGQGTLVTVSS
VL: DIQMTQSPSSLSASVGDRVTITCRASQGIRTNLAWFQQKPGKAPKSLIYAASSLQSGVPSRFSGSGSGTDFTLTISSLQPEDFATYYCQQYANYPRTFGGGTKVEIK
notes: IgG1
B14: MH5.25 (antibody, IgG1, V domains shown)
VH: QVQLVQSGAEVKKPGASVKVSCKASGYTFTDFYMNWVRQAPGQGLEWMGRIYPASGNTYYAQKFQGRVTMTRDTSTSTVYMELSSLRSEDTAVYYCARGVWYFDEWGQGTLVTVSS
VL: DIQMTQSPSSLSASVGDRVTITCRASQGIRTNLAWFQQKPGKAPKSLIYAASSLQSGVPSRFSGSGSGTDFTLTISSLQPEDFATYYCQQYANYPRTFGGGTKVEIK
notes: IgG1
B15: MH5.20 (antibody, IgG1, V domains shown)
VH: QVQLVQSGAEVKKPGASVKVSCKASGYTFTDFYMNWVRQAPGQGLEWMGRIYPGAGNTYYAQKFQGRVTMTRDTSTSTVYMELSSLRSEDTAVYYCARGVWYFDTWGQGTLVTVSS
VL: DIQMTQSPSSLSASVGDRVTITCRASQGIRTNLAWFQQKPGKAPKSLIYAASSLQSGVPSRFSGSGSGTDFTLTISSLQPEDFATYYCQQYANYPRTFGGGTKVEIK
notes: IgG1
B16: MH5.28 (antibody, IgG1, V domains shown)
VH: QVQLVQSGAEVKKPGASVKVSCKASGYTFTNYYMNWVRQAPGQGLEWMGRIYPGTGNTYYAQKFQGRVTMTRDTSTSTVYMELSSLRSEDTAVYYCARGVWYFDEWGQGTLVTVSS
VL: DIQMTQSPSSLSASVGDRVTITCRASQGIRTNLAWFQQKPGKAPKSLIYAASSLQSGVPSRFSGSGSGTDFTLTISSLQPEDFATYYCQQYANYPRTFGGGTKVEIK
notes: IgG1
B17: MH5.13 (antibody, IgG1, V domains shown)
VH: QVQLVQSGAEVKKPGASVKVSCKASGYTFTDHYMNWVRQAPGQGLEWMGRIYPASGNTYYAQKFQGRVTMTRDTSTSTVYMELSSLRSEDTAVYYCARGVWYFDTWGQGTLVTVSS
VL: DIQMTQSPSSLSASVGDRVTITCRASQGIRTNLAWFQQKPGKAPKSLIYAASSLQSGVPSRFSGSGSGTDFTLTISSLQPEDFATYYCQQYANYPRTFGGGTKVEIK
notes: IgG1
B18: MH5.11 (antibody, IgG1, V domains shown)
VH: QVQLVQSGAEVKKPGASVKVSCKASGYTFTDHYMNWVRQAPGQGLEWMGRIYPASGNTYYAQKFQGRVTMTRDTSTSTVYMELSSLRSEDTAVYYCARGVWYYDYWGQGTLVTVSS
VL: DIQMTQSPSSLSASVGDRVTITCRASQGIRTNLAWFQQKPGKAPKSLIYAASSLQSGVPSRFSGSGSGTDFTLTISSLQPEDFATYYCQQYANYPRTFGGGTKVEIK
notes: IgG1
B19: MH5.30 (antibody, IgG1, V domains shown)
VH: QVQLVQSGAEVKKPGASVKVSCKASGYTFTNYYMNWVRQAPGQGLEWMGRIYPGAGNTYYAQKFQGRVTMTRDTSTSTVYMELSSLRSEDTAVYYCARGVWYFDSWGQGTLVTVSS
VL: DIQMTQSPSSLSASVGDRVTITCRASQGIRTNLAWFQQKPGKAPKSLIYAASSLQSGVPSRFSGSGSGTDFTLTISSLQPEDFATYYCQQYANYPRTFGGGTKVEIK
notes: IgG1
B20: MH5.14 (antibody, IgG1, V domains shown)
VH: QVQLVQSGAEVKKPGASVKVSCKASGYTFTDHYMNWVRQAPGQGLEWMGRIYPASGNTYYAQKFQGRVTMTRDTSTSTVYMELSSLRSEDTAVYYCARGVWYFDEWGQGTLVTVSS
VL: DIQMTQSPSSLSASVGDRVTITCRASQGIRTNLAWFQQKPGKAPKSLIYAASSLQSGVPSRFSGSGSGTDFTLTISSLQPEDFATYYCQQYANYPRTFGGGTKVEIK
notes: IgG1
B21: MH5.31 (antibody, IgG1, V domains shown)
VH: QVQLVQSGAEVKKPGASVKVSCKASGYTFTNYYMNWVRQAPGQGLEWMGRIYPGAGNTYYAQKFQGRVTMTRDTSTSTVYMELSSLRSEDTAVYYCARGVWYFDTWGQGTLVTVSS
VL: DIQMTQSPSSLSASVGDRVTITCRASQGIRTNLAWFQQKPGKAPKSLIYAASSLQSGVPSRFSGSGSGTDFTLTISSLQPEDFATYYCQQYANYPRTFGGGTKVEIK
notes: IgG1
B22: MH5.7 (antibody, IgG1, V domains shown)
VH: QVQLVQSGAEVKKPGASVKVSCKASGYTFTDHYMNWVRQAPGQGLEWMGRIYPGAGNTYYAQKFQGRVTMTRDTSTSTVYMELSSLRSEDTAVYYCARGVWYYDYWGQGTLVTVSS
VL: DIQMTQSPSSLSASVGDRVTITCRASQGIRTNLAWFQQKPGKAPKSLIYAASSLQSGVPSRFSGSGSGTDFTLTISSLQPEDFATYYCQQYANYPRTFGGGTKVEIK
notes: IgG1

The binders below were run against T1, human C-KIT-Fc (human, UniProt P10721 26-524) (assay: direct ELISA;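 also: Plate-coated C-KIT-Fc (1 µg/ml) probed with antibodies for 1 hr, bound IgG detected via anti-human kappa-HRP and TMB, absorbance measured at 450 nm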).
T1 construct: also called biotinylated human C-KIT-Fc; not shown: Fc part not described
B1: binds.
B2: binds.
B3: binds.
B4: binds.
B5: binds.
B6: binds.
B7: binds.
B8: binds.
B9: binds.
B10: binds.
B11: binds.
B12: binds.
B13: binds.
B14: binds.
B15: binds.
B16: binds.
B17: binds.
B18: binds.
B19: binds.
B20: binds.
B21: binds.
B22: binds.
